Drawing on patent publication US20190218292A1, this text covers OD Ratio variant/IgG1 WT and OD 450 nm for 4 substances.

Experiment [1] concerns the target hCD32aR (human) (UniProt P12318). The experiment is described as follows: ELISA, coated hCD32aR, 0.5 µg/ml. For orientation: In an ELISA, binding on a coated surface is turned into a signal by an enzyme label.
The target of experiment [2] is hCD32aH (human) (UniProt P12318). Kind of experiment: ELISA, coated hCD32aH, IgG aggregated with anti-CK F(ab')2-HRP.
Experiment [3] has as its target hCD32b (human) (UniProt P31994). The experiment is described as follows: ELISA, coated hCD32b, 0.5 µg/ml.
Experiment [4] deals with hCD32aH (human) (UniProt P12318). The experiment is described as follows: ELISA, coated hCD32aH, 0.5 µg/ml.
In experiment [5] the target is FcRn receptor (recombinant protein human FcRnα and β2-microglobulin) (human) (UniProt P55899). The experiment is described as follows: ELISA at pH 6, coated FcRn, 10 µg/ml.
The target in experiment [6] is hCD16aV (human) (UniProt P08637). Kind of experiment: ELISA, coated hCD16aV, 0.5 µg/ml.
The target of experiment [7] is cynomolgus monkey PD1 antigen (cynomolgus monkey) (UniProt B0LAJ3). Kind of experiment: ELISA, coated cynomolgus PD1, 0.2 µg/ml.
Experiment [8] addresses hCD16aV (human) (UniProt P08637). The experiment is described as follows: ELISA, coated hCD16aV, IgG aggregated with anti-CK F(ab')2-HRP.
Experiment [9] deals with FcRn receptor (recombinant protein human FcRnα and β2-microglobulin) (human) (UniProt P55899). Kind of experiment: ELISA at pH 6, coated FcRn.
Experiment [10] deals with hCD32aR (human) (UniProt P12318). Kind of experiment: ELISA, coated hCD32aR, IgG aggregated with anti-CK F(ab')2-HRP.
Experiment [11] has as its target human PD1 antigen (recombinant protein) (human) (UniProt Q15116). The experiment is described as follows: ELISA, coated human PD1, 0.2 µg/ml.
In experiment [12] the target is murine PD1 antigen (murine) (UniProt Q02242). The experiment is described as follows: ELISA, coated murine PD1.
Experiment [13] has as its target cynomolgus monkey PD1 antigen (cynomolgus monkey) (UniProt B0LAJ3). Kind of experiment: ELISA, coated cynomolgus PD1.
Experiment [14] concerns the target human PD1 antigen (recombinant protein) (human) (UniProt Q15116). The experiment is described as follows: ELISA, coated human PD1.
For experiment [15], the target named is human CD64 receptor (hFcγRI) (human) (UniProt P12314). The experiment is described as follows: ELISA, coated hCD64.
The target is the same in experiment [16]. The experiment is described as follows: ELISA, coated hCD64, 0.5 µg/ml.
In experiment [17] the target is hCD32b (human) (UniProt P31994). The experiment is described as follows: ELISA, coated hCD32b, IgG aggregated with anti-CK F(ab')2-HRP.
Sequence of hCD32b (human) (P31994 46-217): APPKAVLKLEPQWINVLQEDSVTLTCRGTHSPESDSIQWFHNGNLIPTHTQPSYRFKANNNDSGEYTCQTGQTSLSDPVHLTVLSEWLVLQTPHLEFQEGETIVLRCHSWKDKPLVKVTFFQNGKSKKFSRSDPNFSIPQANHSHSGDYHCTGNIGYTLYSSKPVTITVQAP

Sequence of hCD32aH (human) (P12318 36-218): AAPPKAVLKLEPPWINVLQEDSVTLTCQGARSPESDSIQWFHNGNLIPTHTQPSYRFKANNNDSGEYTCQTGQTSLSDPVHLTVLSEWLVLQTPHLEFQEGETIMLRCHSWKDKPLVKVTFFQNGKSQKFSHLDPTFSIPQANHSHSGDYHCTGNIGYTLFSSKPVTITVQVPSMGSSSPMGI
Sequence of human PD1 antigen (recombinant protein) (human) (Q15116 25-167 limits assumed): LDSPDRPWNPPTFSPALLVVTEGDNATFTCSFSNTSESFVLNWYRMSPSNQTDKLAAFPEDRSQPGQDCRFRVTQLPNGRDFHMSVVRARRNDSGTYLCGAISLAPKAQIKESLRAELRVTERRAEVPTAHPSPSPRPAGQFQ
Sequence of human CD64 receptor (hFcγRI) (human) (P12314 16-288 limits assumed): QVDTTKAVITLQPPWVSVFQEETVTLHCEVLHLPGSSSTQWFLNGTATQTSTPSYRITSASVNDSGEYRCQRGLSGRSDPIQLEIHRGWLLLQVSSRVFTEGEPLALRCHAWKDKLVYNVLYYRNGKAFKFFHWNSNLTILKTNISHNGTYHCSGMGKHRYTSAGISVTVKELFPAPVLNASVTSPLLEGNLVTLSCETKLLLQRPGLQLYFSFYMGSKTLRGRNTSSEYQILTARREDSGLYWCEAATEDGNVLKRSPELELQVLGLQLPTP
Sequence of FcRn receptor (recombinant protein human FcRnα and β2-microglobulin) (human) (P55899 24-297 limits assumed, chain 1 of 2): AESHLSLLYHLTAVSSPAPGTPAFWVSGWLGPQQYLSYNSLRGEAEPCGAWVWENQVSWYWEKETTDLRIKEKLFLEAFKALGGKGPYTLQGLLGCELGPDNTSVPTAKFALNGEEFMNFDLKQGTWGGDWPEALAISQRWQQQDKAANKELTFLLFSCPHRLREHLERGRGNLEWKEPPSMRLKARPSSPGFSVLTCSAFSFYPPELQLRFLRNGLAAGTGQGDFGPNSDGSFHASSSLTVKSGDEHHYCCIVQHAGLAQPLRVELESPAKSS
Sequence of FcRn receptor (recombinant protein human FcRnα and β2-microglobulin) (human) (P61769 21-119 limits assumed, chain 2 of 2, further chain): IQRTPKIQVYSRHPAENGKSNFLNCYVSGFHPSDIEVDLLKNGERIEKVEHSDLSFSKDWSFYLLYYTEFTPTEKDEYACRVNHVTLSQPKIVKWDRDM
Sequence of cynomolgus monkey PD1 antigen (cynomolgus monkey) (B0LAJ3 entry or part of it limits assumed, form in doubt): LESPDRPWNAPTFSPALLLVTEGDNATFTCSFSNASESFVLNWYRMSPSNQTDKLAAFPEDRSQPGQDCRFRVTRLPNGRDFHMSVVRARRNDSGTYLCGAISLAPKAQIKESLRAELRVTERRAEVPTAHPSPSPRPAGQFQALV
Sequence of murine PD1 antigen (murine) (Q02242 25-167 limits assumed): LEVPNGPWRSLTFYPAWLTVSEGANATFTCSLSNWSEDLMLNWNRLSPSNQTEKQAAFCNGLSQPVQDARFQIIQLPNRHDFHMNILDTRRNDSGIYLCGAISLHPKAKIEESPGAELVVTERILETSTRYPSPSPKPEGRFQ

Consider “IgG1_C6A_74Del294 nivolumab (V259I/Del294/N315D/N434Y) (antibody)”, for which the OD Ratio variant/IgG1 WT stood at 0.06 in [1]; 0.06 in experiment [3]; 0.05 in experiment [4]; 7.27 in experiment [5]; 0.15 in [6]; 0.96 in experiment [7]. Besides, the OD Ratio variant/IgG1 WT in experiment [11] came to 1.06; in [16], 0.05. The OD 450 nm at 0.5 µg/ml in experiment [2] turned out to be 0.0798 OD 450 nm; in experiment [8] it was 0.121 OD 450 nm; in experiment [10] it was 0.242 OD 450 nm; in experiment [15] it was 0.0574 OD 450 nm; in experiment [17], 0.132 OD 450 nm. In addition, the OD 450 nm at 10 µg/ml in experiment [9] amounted to 2.3 OD 450 nm. The OD 450 nm at 0.2 µg/ml in experiment [12] came to 0.31 OD 450 nm; in experiment [13], 2.29 OD 450 nm; in experiment [14], 2.77 OD 450 nm.

“IgG1_C6A_74 nivolumab (V259I/N315D/N434Y) (antibody)”: the OD Ratio variant/IgG1 WT in [1] worked out at 0.65; in [3], 0.24; in experiment [4], 1.02; in experiment [5] it was 7.47; in [6] it was 1.31; in [7], 0.95. Moreover, the OD Ratio variant/IgG1 WT was determined as 1.1 in experiment [11] and 0.98 in experiment [16]. Besides, the OD 450 nm at 0.5 µg/ml in experiment [2] came out at 1.65 OD 450 nm; in [8] it was 1.07 OD 450 nm; in experiment [10] it was 2.43 OD 450 nm; in experiment [15], 1.24 OD 450 nm; in [17] it was 0.481 OD 450 nm. Also, the OD 450 nm at 10 µg/ml in [9] turned out to be 2.37 OD 450 nm. The OD 450 nm at 0.2 µg/ml in experiment [12] stood at 0.235 OD 450 nm; in experiment [13], 2.28 OD 450 nm; in experiment [14] it was 2.87 OD 450 nm.

In the case of “IgG1_WT pembrolizumab (from UniProt P01857 1-330) (antibody)”, in experiment [9], the OD 450 nm at 10 µg/ml was 0.379 OD 450 nm. In experiment [15], the OD 450 nm at 0.5 µg/ml was 0.777 OD 450 nm.

Turning to “IgG1_WT nivolumab (from UniProt P01857 1-330) (antibody)”, the OD 450 nm at 10 µg/ml in experiment [9] turned out to be 0.317 OD 450 nm. In experiment [15], the OD 450 nm at 0.5 µg/ml is 1.26 OD 450 nm.
